Patent US20070293656A1, “COLLAGEN BINDING PEPTIDES” (Epix Pharmaceuticals, Inc., priority 2005, published 2007)
Read-outs that look alike come from different tables or passages of the source. Each block holds one molecule with its values, some of them ahead of it. Bridge positions count the residues as written; N and C are the ends. Square brackets hold non-standard residues; d marks the D form. Primed or numbered codes have the meaning given here. Side chains are listed from the residue outwards. Ends that are not written are not given here. * marks the point of attachment. GdT″ = Gd-DTPA chelate conjugated through a thiourea; Dip = N[C@H](C(=O)O)C(c1ccccc1)c1ccccc1; Orn = NCCC[C@H](N)C(=O)O; Gd^T = not defined here; Gd^T″ = GdDTPA-thiourea; Cbz = O=C(OCc1ccccc1)*

Legend:
rat collagen type I = molecular target: T1, rat collagen type I (Rattus norvegicus, UniProt P02454+P02466); test: Dried collagen assay (DCA): percent binding to dried rat collagen; details: 5 μM peptide in PBS, pH 7.4, 2 hours at room temperature
T1 construct: Rat collagen (acid soluble, type I, rat tail); purchased Upstate USA, Inc 08-115; host or cells: rat tail
Description: Rat collagen (acid soluble, type I, rat tail, Upstate USA, Inc, cat #08-115) is dialyzed against 10 mM Phosphate (NaH2PO4), pH 4.2 with three changes of the dialysis buffer. For the final assay, a 1:10 volume of 10×PBS (100 mM NaH2PO4, 1.5 M NaCl pH 7.4) is added to the collagen solution (final 1×PBS) and incubated at 37° C. for 2 hours. The gelation is typically 90%.
(§1) An additional 90 μL is reserved in a HPLC glass vial as a measure of the total concentration.

human collagen type I = molecular target: T2, human collagen type I (Homo sapiens, UniProt P02452+P08123); test: Dried collagen assay (DCA): percent binding to dried human collagen; details: 5 μM peptide in PBS, pH 7.4, 2 hours at room temperature
T2 construct: Acid soluble human collagen extracted from placenta; purchased Sigma C7774 (lot #083K375); host or cells: human placenta
Description: Acid soluble human collagen extracted from placenta (Sigma, cat #C7774, lot #083K375) is dissolved in 15 mM HCl (3.5 mg/ml) by vortexing and gently shaking for 3-4 hours at 4° C. The acid soluble collagen is […] against PBS, pH 7.4 (three buffer exchanges are used). The […] protein concentration is determined by the BCA method (Pierce, Cat #23225) using bovine collagen (Vitrogen, cat #FXP-019) as a reference standard. Percent gelation (fibril formation) of the collagen is determined by incubating 10 μM collagen (3.3 mg/ml) at 37° C. for 6 hours. A typical percent gelation is 60%.
as §1

[1] = molecular target: T3, human collagen type I (acid soluble, extracted from placenta, Sigma C7774) (human, UniProt P02452 162-1218; P08123 80-1119); test: dried collagen assay
T3 construct: gelled and dried as a fibril film in the assay; also called dried human collagen; h-Collagen

[2] = molecular target: T4, rat collagen (acid soluble, type I, rat tail, Upstate 08-115) (rat, UniProt P02454 152-1207; P02466 86-1125); test: dried collagen assay
T4 construct: also called dried rat collagen; insoluble rat collagen

[3] = molecular target: T3, human collagen type I (acid soluble, …); test: dried collagen assay; remark: listed apart in the source
[4] = molecular target: T4, rat collagen (acid soluble, type I, rat …); test: dried collagen assay; remark: listed apart in the source
[5] = molecular target: T3, human collagen type I (acid soluble, …); test: dried collagen assay; remark: listed apart in the source
[6] = molecular target: T4, rat collagen (acid soluble, type I, rat …); test: dried collagen assay; remark: listed apart in the source
[7] = molecular target: rat collagen (acid soluble, type I, rat tail, Upstate 08-115) (rat) (UniProt P02454); test: dried collagen assay
[8] = molecular target: human collagen type I (acid soluble, extracted from placenta, Sigma C7774) (human) (UniProt P02452); test: dried collagen assay
[9] = molecular target: T4, rat collagen (acid soluble, type I, rat …); test: dried collagen assay; remark: listed apart in the source
[10] = molecular target: T3, human collagen type I (acid soluble, …); test: dried collagen assay; remark: listed apart in the source

T1 sequence (P02454 152-1207 limits assumed): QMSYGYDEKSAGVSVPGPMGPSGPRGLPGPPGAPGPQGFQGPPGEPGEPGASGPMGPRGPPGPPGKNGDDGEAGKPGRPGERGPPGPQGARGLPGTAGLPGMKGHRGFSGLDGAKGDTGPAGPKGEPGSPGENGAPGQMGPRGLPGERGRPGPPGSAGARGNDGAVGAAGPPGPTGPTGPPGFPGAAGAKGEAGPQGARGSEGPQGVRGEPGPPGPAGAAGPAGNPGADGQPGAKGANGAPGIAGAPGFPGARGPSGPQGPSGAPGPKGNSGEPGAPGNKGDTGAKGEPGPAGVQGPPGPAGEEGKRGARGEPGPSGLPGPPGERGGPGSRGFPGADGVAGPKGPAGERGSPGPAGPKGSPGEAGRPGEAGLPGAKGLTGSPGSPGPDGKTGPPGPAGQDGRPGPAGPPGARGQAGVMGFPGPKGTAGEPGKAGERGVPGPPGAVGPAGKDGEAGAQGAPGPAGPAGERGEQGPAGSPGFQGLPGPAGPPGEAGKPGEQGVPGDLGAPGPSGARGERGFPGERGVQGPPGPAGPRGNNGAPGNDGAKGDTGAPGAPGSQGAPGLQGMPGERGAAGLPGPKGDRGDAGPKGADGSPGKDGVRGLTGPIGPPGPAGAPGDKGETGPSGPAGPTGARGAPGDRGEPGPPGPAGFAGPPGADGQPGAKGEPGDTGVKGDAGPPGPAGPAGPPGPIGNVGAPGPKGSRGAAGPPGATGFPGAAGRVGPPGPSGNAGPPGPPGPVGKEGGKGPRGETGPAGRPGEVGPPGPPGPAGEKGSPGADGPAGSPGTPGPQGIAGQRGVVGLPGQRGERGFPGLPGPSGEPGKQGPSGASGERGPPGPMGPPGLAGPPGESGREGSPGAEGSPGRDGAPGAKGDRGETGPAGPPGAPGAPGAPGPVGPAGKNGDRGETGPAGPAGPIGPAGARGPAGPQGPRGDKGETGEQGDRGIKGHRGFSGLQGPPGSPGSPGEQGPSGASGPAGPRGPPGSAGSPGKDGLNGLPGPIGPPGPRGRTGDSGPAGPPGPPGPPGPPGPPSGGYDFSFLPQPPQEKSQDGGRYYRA
T1 sequence (P02466 86-1125 limits assumed): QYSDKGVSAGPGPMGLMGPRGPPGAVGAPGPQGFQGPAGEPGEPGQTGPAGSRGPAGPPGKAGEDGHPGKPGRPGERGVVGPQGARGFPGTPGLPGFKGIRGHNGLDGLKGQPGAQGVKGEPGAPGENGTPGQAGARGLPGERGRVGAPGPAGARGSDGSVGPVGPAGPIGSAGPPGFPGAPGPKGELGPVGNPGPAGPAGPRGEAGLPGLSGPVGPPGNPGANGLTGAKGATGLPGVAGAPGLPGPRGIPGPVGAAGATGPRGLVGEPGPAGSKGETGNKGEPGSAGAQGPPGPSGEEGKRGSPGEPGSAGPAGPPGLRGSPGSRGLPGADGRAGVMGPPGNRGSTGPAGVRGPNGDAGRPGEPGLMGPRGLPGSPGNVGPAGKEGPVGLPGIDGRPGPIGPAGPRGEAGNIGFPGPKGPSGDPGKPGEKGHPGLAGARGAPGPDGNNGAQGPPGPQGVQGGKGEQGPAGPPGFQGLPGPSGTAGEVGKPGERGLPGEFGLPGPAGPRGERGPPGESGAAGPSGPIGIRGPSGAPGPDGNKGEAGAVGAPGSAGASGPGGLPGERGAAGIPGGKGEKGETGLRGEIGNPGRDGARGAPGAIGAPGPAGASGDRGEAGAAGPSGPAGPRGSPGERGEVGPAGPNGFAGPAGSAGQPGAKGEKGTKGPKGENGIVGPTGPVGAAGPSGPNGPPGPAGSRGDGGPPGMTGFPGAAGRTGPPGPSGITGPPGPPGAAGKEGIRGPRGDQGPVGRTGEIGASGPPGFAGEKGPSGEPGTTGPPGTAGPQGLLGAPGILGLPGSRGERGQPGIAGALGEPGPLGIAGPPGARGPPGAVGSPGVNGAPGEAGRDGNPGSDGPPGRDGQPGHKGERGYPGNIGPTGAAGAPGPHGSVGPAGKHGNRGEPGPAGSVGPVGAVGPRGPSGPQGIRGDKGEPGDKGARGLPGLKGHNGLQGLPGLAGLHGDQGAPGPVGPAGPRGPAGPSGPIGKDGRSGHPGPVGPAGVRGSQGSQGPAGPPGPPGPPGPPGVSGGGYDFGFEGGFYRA
T4 sequence (P02454 152-1207 limits assumed, chain 1 of 2): as the sequence (P02454 152-1207 limits assumed) above
T4 sequence (P02466 86-1125 limits assumed, chain 2 of 2): as the sequence (P02466 86-1125 limits assumed) above
T3 sequence (P02452 162-1218 limits assumed, chain 1 of 2): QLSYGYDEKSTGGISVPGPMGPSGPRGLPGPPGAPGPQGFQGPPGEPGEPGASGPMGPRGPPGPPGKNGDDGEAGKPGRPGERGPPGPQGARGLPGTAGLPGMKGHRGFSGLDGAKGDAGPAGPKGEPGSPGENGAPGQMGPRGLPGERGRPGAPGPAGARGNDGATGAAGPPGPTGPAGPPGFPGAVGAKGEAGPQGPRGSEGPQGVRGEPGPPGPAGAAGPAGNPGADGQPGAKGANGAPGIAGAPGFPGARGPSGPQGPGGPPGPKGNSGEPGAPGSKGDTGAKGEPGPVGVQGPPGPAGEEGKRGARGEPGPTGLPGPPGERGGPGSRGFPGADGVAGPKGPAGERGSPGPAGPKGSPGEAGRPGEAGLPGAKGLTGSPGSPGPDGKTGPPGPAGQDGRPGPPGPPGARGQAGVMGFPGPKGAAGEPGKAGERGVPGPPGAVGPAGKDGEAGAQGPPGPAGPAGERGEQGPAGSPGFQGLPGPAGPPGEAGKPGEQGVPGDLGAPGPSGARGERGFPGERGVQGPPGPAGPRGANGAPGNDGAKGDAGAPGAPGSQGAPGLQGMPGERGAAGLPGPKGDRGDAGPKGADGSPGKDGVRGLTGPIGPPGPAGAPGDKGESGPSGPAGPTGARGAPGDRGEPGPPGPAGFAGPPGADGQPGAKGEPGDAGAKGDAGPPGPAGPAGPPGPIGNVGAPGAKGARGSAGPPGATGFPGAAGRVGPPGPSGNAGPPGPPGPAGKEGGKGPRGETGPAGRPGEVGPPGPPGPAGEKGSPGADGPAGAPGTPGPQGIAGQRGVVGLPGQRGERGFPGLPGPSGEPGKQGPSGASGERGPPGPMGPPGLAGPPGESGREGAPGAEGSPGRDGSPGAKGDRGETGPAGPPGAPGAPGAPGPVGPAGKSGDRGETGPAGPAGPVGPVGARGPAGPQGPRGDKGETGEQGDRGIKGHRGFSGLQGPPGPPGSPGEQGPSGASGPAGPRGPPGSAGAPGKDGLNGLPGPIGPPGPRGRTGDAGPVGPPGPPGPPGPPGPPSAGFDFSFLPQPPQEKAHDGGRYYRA
T3 sequence (P08123 80-1119 limits assumed, chain 2 of 2): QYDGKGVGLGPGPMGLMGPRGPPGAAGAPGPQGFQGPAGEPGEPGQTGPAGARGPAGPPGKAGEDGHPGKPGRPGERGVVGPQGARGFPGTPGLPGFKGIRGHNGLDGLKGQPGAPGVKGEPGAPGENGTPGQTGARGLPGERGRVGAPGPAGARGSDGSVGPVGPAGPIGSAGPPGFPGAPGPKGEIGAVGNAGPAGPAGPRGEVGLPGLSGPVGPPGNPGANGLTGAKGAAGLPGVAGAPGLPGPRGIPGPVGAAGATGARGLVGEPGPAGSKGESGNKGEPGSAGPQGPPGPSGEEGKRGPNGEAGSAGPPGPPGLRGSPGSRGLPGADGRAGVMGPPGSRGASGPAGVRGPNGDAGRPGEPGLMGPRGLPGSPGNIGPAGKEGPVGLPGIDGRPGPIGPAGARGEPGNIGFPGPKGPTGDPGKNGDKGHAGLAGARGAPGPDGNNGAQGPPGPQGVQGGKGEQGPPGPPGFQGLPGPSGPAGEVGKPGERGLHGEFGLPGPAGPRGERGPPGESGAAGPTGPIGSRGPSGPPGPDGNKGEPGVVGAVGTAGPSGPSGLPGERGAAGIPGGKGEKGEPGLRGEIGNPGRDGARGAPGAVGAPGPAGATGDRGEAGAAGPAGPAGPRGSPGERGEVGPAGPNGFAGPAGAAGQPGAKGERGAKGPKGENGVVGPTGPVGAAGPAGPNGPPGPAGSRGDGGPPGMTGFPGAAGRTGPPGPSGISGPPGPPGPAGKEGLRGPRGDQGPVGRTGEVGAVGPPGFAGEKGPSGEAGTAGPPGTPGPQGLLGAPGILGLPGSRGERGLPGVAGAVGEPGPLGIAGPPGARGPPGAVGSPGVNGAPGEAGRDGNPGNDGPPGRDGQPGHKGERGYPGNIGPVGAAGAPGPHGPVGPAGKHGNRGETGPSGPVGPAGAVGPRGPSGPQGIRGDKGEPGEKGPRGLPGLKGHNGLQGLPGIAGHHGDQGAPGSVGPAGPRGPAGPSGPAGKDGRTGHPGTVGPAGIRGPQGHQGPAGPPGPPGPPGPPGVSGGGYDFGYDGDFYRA
T2 sequence (P02452 162-1218 limits assumed): as the sequence (P02452 162-1218 limits assumed, chain 1 of 2) above
T2 sequence (P08123 80-1119 limits assumed): as the sequence (P08123 80-1119 limits assumed, chain 2 of 2) above
Chain of human collagen type I (acid soluble, extracted from placenta, Sigma C7774) (human) (P02452 162-1218 limits assumed, chain 1 of 2): as the sequence (P02452 162-1218 limits assumed, chain 1 of 2) above
Chain of human collagen type I (acid soluble, extracted from placenta, Sigma C7774) (human) (P08123 80-1119 limits assumed, chain 2 of 2, further chain): as the sequence (P08123 80-1119 limits assumed, chain 2 of 2) above
Chain of rat collagen (acid soluble, type I, rat tail, Upstate 08-115) (rat) (P02454 152-1207 limits assumed, chain 1 of 2): as the sequence (P02454 152-1207 limits assumed) above
Chain of rat collagen (acid soluble, type I, rat tail, Upstate 08-115) (rat) (P02466 86-1125 limits assumed, chain 2 of 2, further chain): as the sequence (P02466 86-1125 limits assumed) above

- % Collagen Binding Dried Rat (rat collagen type I): 6%
Molecule: 171 (QWTCSGDE[dY]TWHCNYE; disulfide 4-13 (inferred)) [compound 171]

- % Collagen Binding Dried Human (human collagen type I): 2%
- % Collagen Binding Dried Rat (rat collagen type I): 3%
Molecule: 166 (QW[dT]CSGDEYTWHCNYE; disulfide 4-13 (inferred)) [compound 166]

- % Collagen Binding Dried Human (human collagen type I): 2%
- % Collagen Binding Dried Rat (rat collagen type I): 2%
Molecule: 176 (QWTCSGDEYTWHC[dN]YE; disulfide 4-13 (inferred)) [compound 176]

- % Collagen Binding Dried Rat (rat collagen type I): 6%
Molecule: 142 (QWTCSADEYTWHCNYE; disulfide 4-13 (inferred)) [compound 142]

- % Collagen Binding Dried Human (human collagen type I): 3%
- % Collagen Binding Dried Rat (rat collagen type I): 2%
Molecule: 168 (QWTC[dS]GDEYTWHCNYE; disulfide 4-13 (inferred)) [compound 168]

- % Collagen Binding Dried Human (human collagen type I): 5%
- % Collagen Binding Dried Rat (rat collagen type I): 4%
Molecule: 173 (QWTCSGDEYT[dW]HCNYE; disulfide 4-13 (inferred)) [compound 173]

- % Collagen Binding Dried Human (human collagen type I): 2%
- % Collagen Binding Dried Rat (rat collagen type I): 4%
Molecule: 165 (Q[dW]TCSGDEYTWHCNYE; disulfide 4-13 (inferred)) [compound 165]

- % Collagen Binding Dried Rat (rat collagen type I): 7%
Molecule: 137 (YHACYQAGCWAW; disulfide 4-9 (inferred)) [compound 137]

- % Collagen Binding Dried Human (human collagen type I): 2%
- % Collagen Binding Dried Rat (rat collagen type I): 2%
Molecule: 175 (QWTCSGDEYTWH[dC]NYE; disulfide 4-13 (inferred)) [compound 175]

- % Collagen Binding Dried Rat (rat collagen type I): 53%
Molecule: 163 ([dY][dH][dA][dC][dY][dQ][dA]G[dC][dW][dI][dW]; disulfide 4-9 (inferred)) [compound 163]

- % bound [1]: 56%
- % bound [2]: 66%
B1: SEQ ID NO: 158 (peptide)
peptide: YHACYQ[dA]GCWIW
modifications: disulfide 4-9 (inferred)

- % bound [3]: 19%
- % bound [4]: 14%
B2: SEQ ID NO: 114 (peptide)
peptide: WTCSGDEYTWHCNYE
modifications: disulfide 3-12 (inferred)

- % bound [3]: 68%
- % bound [4]: 67%
B3: SEQ ID NO: 118 (peptide)
peptide: DWTCSGNHLTWYCNYG
modifications: disulfide 4-13 (inferred)

- % bound [5]: 7%
- % bound [6]: 12%
B4: SEQ ID NO: 131 (peptide)
peptide: AHACYQAGCWIW
modifications: disulfide 4-9 (inferred)

- % bound [5]: 4%
- % bound [6]: 5%
B5: SEQ ID NO: 133 (peptide)
peptide: YHACAQAGCWIW
modifications: disulfide 4-9 (inferred)

- % bound [5]: 72%
- % bound [6]: 88%
B6: SEQ ID NO: 135 (peptide)
peptide: YHACYQAACWIW
modifications: disulfide 4-9 (inferred)

- % bound [5]: 2%
- % bound [6]: 2%
B7: SEQ ID NO: 136 (peptide)
peptide: YHACYQAGCAIW
modifications: disulfide 4-9 (inferred)

- % bound [7]: 7%
- % bound [5]: 4%
B8: SEQ ID NO: 137 (peptide)
peptide: YHACYQAGCWAW
modifications: disulfide 4-9 (inferred)

- % bound [5]: 14%
- % bound [6]: 1%
B9: SEQ ID NO: 134 (peptide)
peptide: YHACYAAGCWIW
modifications: disulfide 4-9 (inferred)

- % bound [8]: 8%
- % bound [9]: 5%
B10: Comp ID 941 (peptide)
peptide: Cbz-GQWHCT[Orn](Gd^T″)RFPHHYCLYG
modifications: disulfide 5-14; not fully specified (C-terminus); printed as cbz-GQWHCT-Orn(Gd^T)-RFPHHYCLYG

- % bound [8]: 8%
- % bound [9]: 9%
B11: Comp ID 878 (peptide)
peptide: GQWHCTTRFPHAYCLYG
modifications: not fully specified; Gd^T-GQWHCTTRFPHAYCLYG

- % bound [10]: 4%
B12: Comp ID 897 (peptide)
peptide: {Gd^T}-GQWHCT[dN]RFPHHYCLYG
modifications: disulfide 5-14 (inferred); not fully specified (C-terminus); printed as Gd^T-GQWHCTnRFPHHYCLYG; reading uncertain

- % bound [9]: 5%
B13: Comp ID 936 (peptide)
peptide: GQWHCTDRFPHHYCLYG
modifications: not fully specified; Gd^T-GQWHCTDRFPHHYCLYG

- % bound [9]: 9%
B14: Comp ID 885 (peptide)
peptide: GQWHCTTDFPHHYCLYG
modifications: not fully specified; Gd^T-GQWHCTTD-F(4-NH2)(Gd^T)-PHHYCLYG

- % bound [1]: 38%
- % bound [2]: 48%
B15: SEQ ID NO: 156 (peptide)
peptide: YHAC[dY]QAGCWIW
modifications: disulfide 4-9 (inferred)

- % bound [1]: 0%
- % bound [2]: 0%
B16: SEQ ID NO: 153 (peptide)
peptide: Y[dH]ACYQAGCWIW
modifications: disulfide 4-9 (inferred)

- % bound [9]: 64%
B17: Comp ID 968 (peptide)
peptide: {GdT″}-GK([Gly-GdT″])WHCTTYFPHH[Dip]CLYG
modifications: disulfide 5-14; not fully specified (C-terminus)

- % bound [5]: 53%
- % bound [6]: 37%
B18: SEQ ID NO: 132 (peptide)
peptide: YAACYQAGCWIW
modifications: disulfide 4-9 (inferred)

- % bound [5]: 2%
- % bound [6]: 1%
B19: SEQ ID NO: 138 (peptide)
peptide: YHACYQAGCWIA
modifications: disulfide 4-9 (inferred)

- % bound [9]: 4%
B20: Comp ID 967 (peptide)
peptide: {Gd^T″}-GK([Gly-Gd^T″])WHCTTYFPHHYCL[Dip]G
modifications: disulfide 5-14 (inferred); not fully specified (C-terminus); printed as Gd^T-G-K(G.Gd^T)-WHCTTYFPHHYCL-Dip-G

- % bound [1]: 37%
- % bound [2]: 35%
B21: SEQ ID NO: 157 (peptide)
peptide: YHACY[dQ]AGCWIW
modifications: disulfide 4-9 (inferred)

- % bound [3]: 58%
- % bound [4]: 35%
B22: SEQ ID NO: 116 (peptide)
peptide: DWTCSGDHLTWHCNYG
modifications: disulfide 4-13 (inferred)

- % bound [3]: 38%
- % bound [4]: 24%
B23: SEQ ID NO: 117 (peptide)
peptide: DWTCSGDHLTWKCNYG
modifications: disulfide 4-13 (inferred)

- % bound [9]: 5%
B24: Comp ID 906 (peptide)
peptide: GQWHCTTRFPHHYXLYG
modifications: not fully specified; Gd^T-GQWHCTTRFPHHY-Pen-LYG

- % bound [1]: 8%
- % bound [2]: 10%
B25: SEQ ID NO: 161 (peptide)
peptide: YHACYQAGCW[dI]W
modifications: disulfide 4-9 (inferred)

- % bound [3]: 39%
- % bound [4]: 23%
B26: SEQ ID NO: 115 (peptide)
peptide: DWTCSGDPYTWHCNYE
modifications: disulfide 4-13 (inferred)

- % bound [3]: 55%
- % bound [4]: 55%
B27: SEQ ID NO: 119 (peptide)
peptide: DWTCSGDEFTWHCNYE
modifications: disulfide 4-13 (inferred)

- % bound [1]: 20%
- % bound [2]: 12%
B28: SEQ ID NO: 160 (peptide)
peptide: YHACYQAGC[dW]IW
modifications: disulfide 4-9 (inferred)

- % bound [1]: 24%
- % bound [2]: 21%
B29: SEQ ID NO: 154 (peptide)
peptide: YH[dA]CYQAGCWIW
modifications: disulfide 4-9 (inferred)
